From patent publication CN111778218A (SHANDONG KUANHEZHENG BIOTECHNOLOGY MEDICINE CO LTD, dated 2020)

B1: 噬菌体展示的单克隆抗体A9 (antibody, V domains shown)
VH: EVQLLESGGGLVQPGGSLRLSCAASGFTFSSYAMSWVRQAPGKGLEWVSGITNSGSSTSYADSVKGRFTISRDNSKNTLYLQMNSLRAEDTAVYYCAKGTDAFDYWGQGTLVTVSS
VL: DIQMTQSPSSLSASVGDRVTITCRASQSISSYLNWYQQKPGKAPKLLIYAASTLQSGVPSRFSGSGSGTDFTLTISSLQPEDFATYYCQQSNCSPATFGQGTKVEIKR
notes: also called A9抗体
B2: 噬菌体展示的单克隆抗体E11 (antibody, V domains shown)
VH: EVQLLESGGGLVQPGGSLRLSCAASGFTFSSYAMSWVRQAPGKGLEWVSSIDSSGYYTSYADSVKGRFTISRDNSKNTLYLQMNSLRAEDTAVYYCAKNSDSFDYWGQGTLVTVSS
VL: DIQMTQSPSSLSASVGDRVTITCRASQSISSYLNWYQQKPGKAPKLLIYSASYLQSGVPSRFSGSGSGTDFTLTISSLQPEDFATYYCQQYDDGPNTFGQGTKVEIKR
notes: also called E11抗体
B3: 噬菌体展示的单克隆抗体H9 (antibody, V domains shown)
VH: EVQLLESGGGLVQPGGSLRLSCAASGFTFSSYAMSWVRQAPGKGLEWVSDITDNGASTGYADSVKGRFTISRDNSKNTLYLQMNSLRAEDTAVYYCAKSTNTFDYWGQGTLVTVSS
VL: DIQMTQSPSSLSASVGDRVTITCRASQSISSYINWYQQKPGKAPKLLIYDASSLQSGVPSRFSGSGSGTDFTLTISSLQPEDFATYYCQQNSNSPSTFGQGTKVEIKR
notes: also called H9抗体
B4: 噬菌体展示的单克隆抗体F5 (antibody, V domains shown)
VH: EVQLLESGGGLVQPGGSLRLSCAASGFTFSSYAMSWVRQAPGKGLEWVSTIDSAGNSTTYADSVKGRFTISRDNSKNTLYLQMNSLRAEDTAVYYCAKNDSSFDYWGQGTLVTVSS
VL: DIQMTQSPSSLSASVGDRVTITCRASQSISSYLNWYQQKPGKAPKLLIYSASWLQSGVPSRFSGSGSGTDFTLTISSLQPEDFATYYCQQYSDGPDTFGQGTKVEIKR
notes: also called F5抗体; 噬菌体展示F5抗体
B5: 噬菌体展示的单克隆抗体F10 (antibody, V domains shown)
VH: EVQLLESGGGLVQPGGSLRLSCAASGFTFSSYAMSWVRQAPGKGLEWVSGIDSAGYYTTYADSVKGRFTISRDNSKNTLYLQMNSLRAEDTAVYYCAKDSDTFDYWGQGTLVTVSS
VL: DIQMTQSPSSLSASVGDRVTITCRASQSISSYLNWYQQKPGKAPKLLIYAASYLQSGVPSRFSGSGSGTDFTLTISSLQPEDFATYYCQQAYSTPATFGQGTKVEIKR
notes: also called F10抗体

Each binder was assayed against T1, 牛血清白蛋白BSA (牛 (bovine), UniProt P02769 25-607) (assay: phage ELISA, BSA coated at 1 μg/mL).
T1 construct: also called 牛血清蛋白
T1 sequence (P02769 25-607 limits assumed): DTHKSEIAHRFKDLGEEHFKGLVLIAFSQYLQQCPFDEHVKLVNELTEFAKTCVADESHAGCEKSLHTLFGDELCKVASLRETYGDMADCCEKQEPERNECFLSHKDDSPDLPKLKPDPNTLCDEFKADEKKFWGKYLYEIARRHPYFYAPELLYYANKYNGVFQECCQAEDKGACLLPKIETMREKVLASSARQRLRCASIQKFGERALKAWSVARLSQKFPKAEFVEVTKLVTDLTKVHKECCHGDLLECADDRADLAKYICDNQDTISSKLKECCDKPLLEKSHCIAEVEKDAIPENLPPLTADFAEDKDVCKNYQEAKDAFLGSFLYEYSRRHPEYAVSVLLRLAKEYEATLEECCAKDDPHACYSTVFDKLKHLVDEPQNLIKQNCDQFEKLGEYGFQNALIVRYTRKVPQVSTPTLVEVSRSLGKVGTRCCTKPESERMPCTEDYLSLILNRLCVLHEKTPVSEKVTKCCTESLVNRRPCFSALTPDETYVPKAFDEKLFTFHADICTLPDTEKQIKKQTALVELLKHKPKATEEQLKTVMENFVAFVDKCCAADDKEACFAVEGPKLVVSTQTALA
B1: no binding.
B2: no binding.
B3: no binding.
B4: no binding.
B5: no binding.
